Measurements from patent publication US20090227489A1 (UNIVERSITY OF SOUTH FLORIDA A FLORIDA, published 2009).

Target: the molecule itself
Assay: EMSA supershift, hSIE probe, nuclear extracts of Stat3β-transfected B16 cells
Excerpt: EGF-induced Stat3 binding activity in NIH3T3 (lane 4) was used as a positive control. By supershift analysis with antibody that recognizes Stat3 but not Stat3β or antibody that recognizes Stat3β but not Stat3, it was shown that there were Stat3-Stat3 homodimers in mock-transfected B16 cells and empty vector-transfected B16 cells. Overexpression of Stat3β in Stat3β-transfected B16 cells results in mostly Stat3β-Stat3β homodimer formation.

B1: Stat3β, dominant-negative Stat3 variant (ectopic, from pIRES-Stat3β) (other)
chain: AQWNQLQQLDTRYLEQLHQLYSDSFPMELRQFLAPWIESQDWAYAASKESHATLVFHNLLGEIDQQYSRFLQESNVLYQHNLRRIKQFLQSRYLEKPMEIARIVARCLWEESRLLQTAATAAQQGGQANHPTAAVVTEKQQMLEQHLQDVRKRVQDLEQKMKVVENLQDDFDFNYKTLKSQGDMQDLNGNNQSVTRQKMQQLEQMLTALDQMRRSIVSELAGLLSAMEYVQKTLTDEELADWKRRQQIACIGGPPNICLDRLENWITSLAESQLQTRQQIKKLEELQQKVSYKGDPIVQHRPMLEERIVELFRNLMKSAFVVERQPCMPMHPDRPLVIKTGVQFTTKVRLLVKFPELNYQLKIKVCIDKDSGDVAALRGSRKFNILGTNTKVMNMEESNNGSLSAEFKHLTLREQRCGNGGRANCDASLIVTEELHLITFETEVYHQGLKIDLETHSLPVVVISNICQMPNAWASILWYNMLTNNPKNVNFFTKPPIGTWDQVAEVLSWQFSSTTKRGLSIEQLTTLAEKLLGPGVNYSGCQITWAKFCKENMAGKGFSFWVWLDNIIDLVKKYILALWNEGYIMGFISKERERAILSTKPPGTFLLRFSESSKEGGVTFTWVEKDISGKTQIQSVEPYTKQQLNNMSFAEIIMGYKIMDATNILVSPLVYLYPDIPKEEAFGKYCRPESQEHPEADPGAAPYLKTKFICVTFIDAVWK
notes: ID; NO:3; NO:4'; It was expressed in B16 cells from pIRES-Stat3β and assayed in nuclear extracts; also called Stat3beta; ST3β
- binding result: binds
